# Laboratory results: US11110182B2, “Multifunctional RNA nanoparticles and methods for treating cancer and therapeutic resistant cancer” (University of Cincinnati, priority 2016, dated 2021)
# Assays:
# MED1 = MED1 protein level by western blots in MDA-MB-231 cells; assay type: cell-based, human; conditions: MDA-MB-231, transfected, 48 h
# Description: FIG. 8A) HER2 expression in BT474 and MDA-MB-231 cells determined by western blot analyses. FIG. 8B) The binding of AF-647-labeled pRNA-HER2apt-siMED1 and its mutant nanoparticles to MDA-MB-231 and BT474 cells examined by confocal microscopy. Green represents the immunofluorescent staining of HER2, and blue represents nuclear staining with DAPI. FIG. 8C) The internalization of AF647-labeled pRNA nanoparticles by MDA-MB-231 cells examined by confocal microscopy. Green represents the immunofluorescent staining of β-actin. Scale bar: 10 μm. FIG. 8D) The cellular uptake of AF647-labeled pRNA nanoparticles by MDA-MB-231 cells quantified by flow cytometry. FIG. 8E) HER2 expression in BT474 xenograft tumors was examined by western blot analyses. FIG. 8F) MDA-MB-231 cells were incubated directly with (as indicated by-) or transfected with pRNAs using lipofectamine 2000. At 48 h post treatment, MED1 protein levels were determined by western blots.
# Cell culture. […] The hydrodynamic diameter and Tm value of pRNA nanoparticles were determined using dynamic light scattering and TGGE assay, respectively, as previously described.^54 The AFM imaging of the pRNA nanoparticles was performed at the University of Nebraska Medical Center imaging facility as previously reported.^55 Briefly, the pRNA nanoparticles (5 μL) were deposited on APS modified mica ^56 for a total of 2 min of incubation time. […]
# [1] = system: HER2-overexpressing BT474 cells; assay: pRNA nanoparticle cellular uptake assay (confocal, flow cytometry), BT474; assay type: cell-based, human; conditions: for cellular uptake by flow cytometry: BT474, 3 h incubation at 37° C.; for binding and internalization into cells: BT474, AF647-conjugated, 10 μg/mL, confocal microscopy
# Method: FIG. 2A) Confocal microscopy analyses of the internalization of AF647-labeled control and pRNA-HER2apt-siMED1 nanoparticles by BT474 cells. Scale bar: 10 μm. FIG. 2B) Flow cytometry assays of the cellular uptake of AF647-labeled control and pRNA-HER2apt-siMED1 nanoparticles by BT474 cells. FIG. 2C) IVIS Lumina live imaging of BT474 orthotopic xenograft mice 24 hrs after i.v. injection of indicated AF647-labeled pRNA nanoparticles (10 mg/Kg). FIG. 2D) Major organs and tumors of above mice were excised and imaged for AF647 fluorescence. FIG. 2E) Frozen tumor sections were examined for localization of AF647-labeled pRNA nanoparticles (red) using confocal microscopy. The blood vessels were stained with anti-CD31 primary antibody and Alexa488-conjugated secondary antibody (green). The nuclei were stained with DAPI (blue). Scale bar: 50 μm. FIG. 2F) The fluorescence intensity of AF647-labeled pRNA nanoparticles (red) in frozen tumor sections was quantified with Image-pro Plus software.
# Cell culture. Human breast cancer luciferase-overexpressing BT474 and MDA-MB-231 cells were maintained in DMEM medium (Hyclone, Thermo Scientific) supplemented with 10% fetal bovine serum (FBS, Sigma) and 1% penicillin/streptomycin (Corning) at 37° C. in a humidified atmosphere with 5% CO2.^53 • Generation of pRNA nanoparticles. The two strands of pRNA were synthesized with the DNA templates, which were amplified with overlapping primers (Sigma) by PCR methods, using a T7 promoter-controlled in vitro RNA transcription system as previously described^33 (Table 1). All the CTP and UTP used for synthesis of the pRNA nanoparticles were 2′-fluoro modified, except the control unmodified pRNA nanoparticles used in the stability assays. Following an overnight transcription at 37° C., RNA strands were purified using RNA clean and concentrator kits (ZYMO research) and examined by 8 M urea denatured 8% PAGE gel. pRNA nanoparticles were assembled by mixing the equal molar amounts of p1 and p2 strands and gradually annealing from 90° C. to 20° C. in 1×RNA annealing buffer containing 50 mM Tris-HCl (pH 7.5), 50 mM NaCl and 1 mM EDTA on a PCR machine. […] The hydrodynamic diameter and Tm value of pRNA nanoparticles were determined using dynamic light scattering and TGGE assay, respectively, as previously described.^54 The AFM imaging of the pRNA nanoparticles was performed at the University of Nebraska Medical Center imaging facility as previously reported.^55 Briefly, the pRNA nanoparticles (5 μL) were deposited on APS modified mica ^56 for a total of 2 min of incubation time. […]
Molecule,MED1 protein level after transfection with lipofectamine 2000 (MED1),cellular uptake by flow cytometry [1],binding and internalization into cells [1]
"pRNA-HER2apt-siMED1: 3-WJ pRNA nanoparticle bearing a HER2-targeting RNA aptamer and two different MED1 siRNAs; strands p1 SEQ ID NO: 3, p2 SEQ ID NO: 4 (nucleic acid, 2'-F modification; third strand may lack entry; pRNA-HER2apt-siMED1, p1; pRNA-HER2apt-siMED1, p2) chain 1: GGACAGUGAAAGUGAGUCAAAGGAUCAAUCAUGGCCAAAGAUGUUACUUUGAGAGCCUU chain 2: GGCUCUCAAAGUAACAUCUAAGGCCAUGUGUAUGUGGGGGGAGGACGAUGCGGUCUGCUGUGCUUGAUAUGCCCCAGACGACUCGCCCCCCACAUACUUUGUUGAUCCAAUGACUCACUUUCACUGUCCUU",MED1 silencing,effectively taken up,can bind and be readily internalized
"pRNA-HER2apt^mut-siMED1: control pRNA nanoparticle with mutant HER2 aptamer; strands p1 SEQ ID NO: 5, p2 SEQ ID NO: 6 (nucleic acid, pRNA-HER2apt(mut)-siMED1, p1; pRNA-HER2apt(mut)-siMED1, p2) chain 1: GGACAGUGAAAGUGAGUCAAAGGAUCAAUCAUGGCCAAAGAUGUUACUUUGAGAGCCUU chain 2: GGCUCUCAAAGUAACAUCUAAGGCCAUGUGUAUGUGGGAUGAGGAGUAUGAAGAUACCUGUACUUGAUAUGCCCCAGACGACAUUCCCCCCACAUACUUUGUUGAUCCAAUGACUCACUUUCACUGUCCUU",MED1 silencing,notably decreased the uptake efficiency,dramatically impaired
